In patent US20120115948A1 one finds half-life of dissociation data, which are given here for one substance.

This assay addresses mitotic APC (Anaphase-Promoting Complex immunoprecipitated from mitotic Xenopus extract) (Xenopus). Put plainly: immunoprecipitated APC-Cdc20 resuspended in mitotic extract with TAME, beads re-isolated, Western blot. (In general: Immunoblotting shows a protein as a band on a membrane.)

The substance Cdc20 (endogenous Xenopus Cdc20) returned a half-life of dissociation of 1 min.
